According to patent US7858322B2, “Method of determining inhibition of binding to TRPM7 protein” (NoNo, Inc., priority 2003, dated 2010):
No end group written: not given here. *: point of attachment. Biotin = O=C1N[C@H]2[C@H](CS[C@H]2CCCCC(=O)*)N1

Key:
Assay in all cases: G assays, titrations or binding assays of peptides
PAR3 d3 = biological target: T1, PAR3 d3 (Homo sapiens, UniProt Q8TEW0, R682S); details: peptide demonstrated to bind PAR3 d3 in G assays
T1 construct: made in house; host or cells: E. coli (DH5α, BL21 or JM109)
T1 sequence (Q8TEW0 with tags, fused parts or gaps R682S): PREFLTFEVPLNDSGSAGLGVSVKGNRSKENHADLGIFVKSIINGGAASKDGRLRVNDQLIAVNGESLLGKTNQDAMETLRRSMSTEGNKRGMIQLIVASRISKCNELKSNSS
Protocol: (§1) In one aspect, the invention provides an assay in which a GST/PDZ fusion protein is immobilized on a surface (G assay). […] In a preferred embodiment, the assay is carried out as follows:
(§2) (1) A PDZ-domain polypeptide is bound to a surface, e.g. a protein binding surface. In a preferred embodiment, a GST/PDZ fusion protein containing one or more PDZ domains is bound to a polystyrene 96-well plate. […] In one embodiment, the GST/PDZ fusion protein is bound via an anti-GST antibody that is coated onto the 96-well plate. Adequate binding to the plate can be achieved when: • a. 100 μl per well of 5 μg/ml goat anti-GST polyclonal antibody (Pierce) in PBS is added to a polystyrene 96-well plate (e.g., Nunc Polysorp) at 4° C. for 12 hours. • b. The plate is blocked by addition of 200 μl per well of PBS/BSA for 2 hours at 4° C. • c. The plate is washed 3 times with PBS. • d. 50 μl per well of 5 μg/ml GST/PDZ fusion protein) or, as a negative control, GST polypeptide alone (i.e. not a fusion protein) in PBS/BSA is added to the plate for 2 hours at 4° C. • e. the plate is again washed 3 times with PBS.
(§3) (2) Biotinylated PL peptides are allowed to react with the surface by addition of 50 μl per well of 20 μM solution of the biotinylated peptide in PBS/BSA for 10 minutes at 4° C., followed by an additional 20 minute incubation at 25° C. The plate is washed 3 times with ice cold PBS.
(§4) (3) The binding of the biotinylated peptide to the GST/PDZ fusion protein surface can be detected using a variety of methods and detectors known to one of skill in the art. In one embodiment, 100 μl per well of 0.5 μg/ml streptavidin-horseradish peroxidase (HRP) conjugate dissolved in BSA/PBS is added and allowed to react for 20 minutes at 4° C. The plate is then washed 5 times with 50 mM Tris pH 8.0 containing 0.2% Tween 20, and developed by addition of 100 μl per well of HRP-substrate solution (TMB, Dako) for 20 minutes at room temperature (RT). The reaction of the HRP and its substrate is terminated by addition of 100 μl per well of 1 M sulfuric acid, and the optical density (O.D.) of each well of the plate is read at 450 um.
(§5) (4) Specific binding of a PL peptide and a PDZ domain polypeptide is determined by comparing the signal from the well(s) in which the PL peptide and PDZ domain polypeptide are combined, with the background signal(s). […] Typically a specific or selective reaction will be at least twice background signal, more typically more than 5 times background, and most typically 10 or more times the background signal. […] Correspondingly, a statistical test (e.g. a T-test) comparing repeated measurements of the signal with repeated measurements of the background will result in a p-value <0.05, more typically a p-value <0.01, and most typically a p-value <0.001 or less. As noted, in an embodiment of the G assay, the signal from binding of a given PL peptide to immobilized (surface bound) GST polypeptide alone is one suitable negative control (sometimes referred to as B1). Because all measurement are done in multiples (i.e. at least duplicate) the arithmetic mean (or, equivalently, average.) of several measurements is used in determining the binding, and the standard error of the mean is used in determining the probable error in the measurement of the binding. The standard error of the mean of N measurements equals the square root of the following: the sum of the squares of the difference between each measurement and the mean, divided by the product of (N) and (N−1). Thus, in one embodiment, specific binding of the PDZ protein to the platebound peptide is determined by comparing the mean signal (“mean S”) and standard error of the signal (“SE”) for a particular PL-PDZ combination with the mean B1.

ZO-1 d2 = biological target: T2, ZO-1 d2 (Homo sapiens, UniProt Q07157, DEL264-264); details: peptide demonstrated to bind ZO-1 d2 in G assays
T2 construct: made in house; host or cells: E. coli (DH5α, BL21 or JM109)
T2 sequence (Q07157 with tags, fused parts or gaps DEL264-264): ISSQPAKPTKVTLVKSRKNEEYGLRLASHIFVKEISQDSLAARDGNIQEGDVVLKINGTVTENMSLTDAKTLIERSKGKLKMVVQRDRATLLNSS
Protocol: as §1, §2, §3, §4, §5

RIM2 d1 = biological target: T3, RIM2 d1 (Homo sapiens, UniProt Q9UQ26); details: peptide demonstrated to bind RIM2 d1 in G assays
T3 construct: made in house; host or cells: E. coli (DH5α, BL21 or JM109)
T3 sequence (Q9UQ26 632-757): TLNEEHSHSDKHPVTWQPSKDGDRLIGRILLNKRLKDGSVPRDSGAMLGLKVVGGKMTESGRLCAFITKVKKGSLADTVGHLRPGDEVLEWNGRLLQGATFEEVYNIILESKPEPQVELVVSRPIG
Protocol: as §1, §2, §3, §4, §5

Sequence | POZ domain bound (PAR3 d3) | POZ domain bound (ZO-1 d2) | POZ domain bound (RIM2 d1)
KAGYRAPRSYPKSNSSKEYV (Biotin-KAGYRAPRSYPKSNSSKEYV) | PAR3 D3 | – | –
TEGNESSEATSPVNAIYSLA (Biotin-TEGNESSEATSPVNAIYSLA) | – | ZO-1 D2 | –
DGGARTEDEVQSYPSKHDYV (Biotin-DGGARTEDEVQSYPSKHDYV) | PAR3 D3 | – | –
YGRKKRRQRRRQDEEEGIWS (Biotin-YGRKKRRQRRRQDEEEGIWS) | – | – | RIM2 D1
KTMPAAMFRLLTGQETPLYI (Biotin-KTMPAAMFRLLTGQETPLYI) | PAR3 D3 | – | –
YGRKKRRQRRRQDERVETRV (Biotin-YGRKKRRQRRRQDERVETRV) | – | – | RIM2 D1
YGRKKRRQRRRARGDVRLML (Biotin-YGRKKRRQRRRARGDVRLML) | – | – | RIM2 D1
YGRKKRRQRRRARGDRKRWL (Biotin-YGRKKRRQRRRARGDRKRWL) | – | ZO-1 D2 | RIM2 D1
YGRKKRRQRRRARGDRRRIV (Biotin-YGRKKRRQRRRARGDRRRIV) | – | – | RIM2 D1
YGRKKRRQRRRARGDRKRWA (Biotin-YGRKKRRQRRRARGDRKRWA) | – | ZO-1 D2 | RIM2 D1
KTMPAAMYRLLTAQEQPVYI (Biotin-KTMPAAMYRLLTAQEQPVYI) | PAR3 D3 | – | –
YGRKKRRQRRRAVAATGIWA (Biotin-YGRKKRRQRRRAVAATGIWA) | – | – | RIM2 D1
LERTSSVSPSTAEPELSIVF (Biotin-LERTSSVSPSTAEPELSIVF) | PAR3 D3 | – | –
YGRKKRRQRRRARSDRKRIA (Biotin-YGRKKRRQRRRARSDRKRIA) | – | – | RIM2 D1
YGRKKRRQRRRARGDRLEIV (Biotin-YGRKKRRQRRRARGDRLEIV) | – | – | RIM2 D1
YGRKKRRQRRRQDEEEGIWA (Biotin-YGRKKRRQRRRQDEEEGIWA) | – | ZO-1 D2 | RIM2 D1
SSSRRDSSWSETSEASYSGL (Biotin-SSSRRDSSWSETSEASYSGL) | – | ZO-1 D2 | RIM2 D1
RRRRRRRGTNPAVAATSANL (Biotin-RRRRRRRGTNPAVAATSANL) | – | ZO-1 D2 | –

Sequence | POZ domain bound (PAR3 d3) | POZ domain bound (ZO-1 d2) | POZ domain bound (RIM2 d1)
YGRKKRRQRRRAVAAASANL (Biotin-YGRKKRRQRRRAVAAASANL) | – | ZO-1 D2 | RIM2 D1
YGRKKRRQRRRGMTSSSSVV (Biotin-YGRKKRRQRRRGMTSSSSVV) | – | – | RIM2 D1
QGDPALQDAGDSSRKEYFI (Biotin-QGDPALQDAGDSSRKEYFI) | PAR3 D3 | – | –
PSSRASSRASSRPRPDDLEI (Biotin-PSSRASSRASSRPRPDDLEI) | – | ZO-1 D2 | –
YGRKKRRQRRRLQRRRETQV (Biotin-YGRKKRRQRRRLQRRRETQV) | – | – | RIM2 D1
YGRKKRRQRRRARSDRGIWA (Biotin-YGRKKRRQRRRARSDRGIWA) | – | ZO-1 D2 | RIM2 D1
KTMPAATYRLLTGQEQPVYL (Biotin-KTMPAATYRLLTGQEQPVYL) | PAR3 D3 | – | –
YGRKKRRQRRRARGDRKKIV (Biotin-YGRKKRRQRRRARGDRKKIV) | – | – | RIM2 D1
NYKLNTDHAGSNDNIALLVQ | – | ZO-1 D2 | RIM2 D1
YGRKKRRQRRRARSDRKRIV (Biotin-YGRKKRRQRRRARSDRKRIV) | – | – | RIM2 D1
YGRKKRRQRRRSRTVREIWA (Biotin-YGRKKRRQRRRSRTVREIWA) | – | – | RIM2 D1
RRRRRRRGNTTDKELEVLSL (Biotin-RRRRRRRGNTTDKELEVLSL) | – | ZO-1 D2 | –
YVYSRVKNLNSSEGVPDLLV | – | ZO-1 D2 | –
YGRKKRRQRRRQDEEETIWA (Biotin-YGRKKRRQRRRQDEEETIWA) | – | – | RIM2 D1
YGRKKRRQRRRAVAATYSNL (Biotin-YGRKKRRQRRRAVAATYSNL) | – | ZO-1 D2 | RIM2 D1
YGRKKRRQRRRARGDRKRIV | – | ZO-1 D2 | RIM2 D1
YGRKKRRQRRRSVTSTSINL (Biotin-YGRKKRRQRRRSVTSTSINL) | – | – | RIM2 D1
YGRKKRRQRRRDKELEVLSL | – | ZO-1 D2 | –
